{"source": "paper doi:10.1101/2020.12.18.423546", "about": "(bioRxiv, 2020)", "proteins": {"B1": {"name": "Bax (α2-α5) (human Bax residues D53 to K128 with C62S and C126S mutations) (domain or fragment)", "chain": "DASTKKLSESLKRIGDELDSNMELQRMIAAVDTDSPREVFFRVAADMFSDGNFNWGRVVALFYFASKLVLKALSTK"}}, "key": {"SEC-MALS": {"molecular_target": "the molecule itself", "test": "SEC-MALS"}, "cross-linking": {"molecular_target": "the molecule itself", "test": "cross-linking"}}, "data": [{"protein": "B1", "values": [{"measurement": "stoichiometry N", "setting": "SEC-MALS", "result": 4}, {"measurement": "stoichiometry N", "setting": "cross-linking", "result": 2}]}]}
